# Assay results taken from the Human Domainome abundance scans (Beltran et al. 2025).
# ± gives the uncertainty stated by the source.
# B1: COUP transcription factor 1, residues 83 to 159; numbered along this chain, P10589 (parent)
# chain: HIECVVCGDKSSGKHYGQFTCEGCKSFFKRSVRRNLTYTCRANRNCPIDQHHRNQCQYCRLKKCLKVGMRREAVQRG
# Variants of: B1
# Assay: abundance fitness (aPCA) (normalised: wild type 0, dead -1); higher = more abundant; growth selection in yeast, the domain comes from the species named
# Conditions: Homo sapiens
row,Variant,abundance fitness
1,T20Y,-0.165 ± 0.11
2,T20M,-0.079 ± 0.076
3,T20W,-0.058 ± 0.051
4,I48H,-0.93 ± 0.22
5,C40A,-0.885 ± 0.094
6,V6K,-1.09 ± 0.38
7,V6S,-0.819 ± 0.14
8,L65D,0.015 ± 0.055
9,L65A,-0.228 ± 0.044
10,P47F,-0.023 ± 0.1
11,R41H,0.051 ± 0.12
12,R41P,0.265 ± 0.055
13,C59L,-0.934 ± 0.09
14,C59S,-0.853 ± 0.1
15,C59V,-0.729 ± 0.068
16,C46Q,-0.18 ± 0.16
17,C46W,-0.779 ± 0.11
18,G23F,0.044 ± 0.43
19,E22F,-0.226 ± 0.17
20,G17P,-0.572 ± 0.17
21,G17T,-0.319 ± 0.16

row,Variant,abundance fitness
1,G17D,-0.072 ± 0.067
2,F19M,-0.149 ± 0.1
3,F19V,-0.269 ± 0.064
4,C56E,-0.87 ± 0.15
5,C56S,-0.723 ± 0.15
6,M69D,-1.06 ± 0.22
7,D9T,-0.047 ± 0.092
8,S12M,-0.113 ± 0.063
9,S12W,-0.675 ± 0.12
10,S12C,-0.578 ± 0.14
11,K63S,-0.464 ± 0.059
12,K63G,-0.526 ± 0.05
13,K63R,-0.094 ± 0.036
14,G68T,-0.677 ± 0.075
15,G68A,-0.729 ± 0.069
16,G68E,-0.524 ± 0.06
17,G68L,-0.572 ± 0.064
18,R34I,0.091 ± 0.16
19,R34V,-0.137 ± 0.085
20,Y58K,-0.366 ± 0.066
21,Y58L,-0.378 ± 0.044

row,Variant,abundance fitness
1,Y58N,-0.548 ± 0.11
2,Q55W,0.095 ± 0.051
3,K25A,0.09 ± 0.043
4,K25G,0.064 ± 0.034
5,K25W,0.003 ± 0.044
6,C4P,-0.833 ± 0.14
7,Q18Y,-0.389 ± 0.26
8,Q18K,-0.031 ± 0.12
9,Q50Y,-0.066 ± 0.1
10,Q50E,0.05 ± 0.044
11,Q50N,0.012 ± 0.11
12,Q50D,0.03 ± 0.071
13,Q50I,0.117 ± 0.089
14,R33P,-0.771 ± 0.16
15,T37H,0.133 ± 0.072
16,T37V,0.044 ± 0.051
17,G77P,-0.013 ± 0.071
18,G77Q,0.304 ± 0.075
19,G77H,-0.004 ± 0.13
20,G77T,-0.016 ± 0.07
21,G77N,-0.023 ± 0.093

row,Variant,abundance fitness
1,R53Q,0.12 ± 0.21
2,R53I,-0.169 ± 0.17
3,R53N,-0.044 ± 0.16
4,R53T,0.017 ± 0.066
5,R53A,0.022 ± 0.059
6,V74C,-0.032 ± 0.052
7,V74Q,-0.063 ± 0.048
8,V74G,-0.102 ± 0.034
9,N54F,-0.222 ± 0.1
10,N54V,-0.025 ± 0.044
11,N35W,-0.38 ± 0.16
12,G13C,-0.95 ± 0.29
13,R30S,-0.157 ± 0.23
14,R30G,-0.079 ± 0.066
15,R30Y,-0.186 ± 0.47
16,K62M,-0.003 ± 0.049
17,L36A,-0.064 ± 0.06
18,L36R,-0.082 ± 0.05
19,Y16R,-0.31 ± 0.08
20,Y16M,-0.154 ± 0.11
